The Kd is the free concentration of one partner at which half of the binding sites on the other are occupied at equilibrium, for simple one-to-one binding. Low values mean tighter binding, high ones weaker binding.

This is an account of results in patent US20220098261A1 (Harvard, published 2022).

The target of one assay is T1, EPO receptor on cells (human, UniProt P19235 25-508).
T1 sequence (looked up): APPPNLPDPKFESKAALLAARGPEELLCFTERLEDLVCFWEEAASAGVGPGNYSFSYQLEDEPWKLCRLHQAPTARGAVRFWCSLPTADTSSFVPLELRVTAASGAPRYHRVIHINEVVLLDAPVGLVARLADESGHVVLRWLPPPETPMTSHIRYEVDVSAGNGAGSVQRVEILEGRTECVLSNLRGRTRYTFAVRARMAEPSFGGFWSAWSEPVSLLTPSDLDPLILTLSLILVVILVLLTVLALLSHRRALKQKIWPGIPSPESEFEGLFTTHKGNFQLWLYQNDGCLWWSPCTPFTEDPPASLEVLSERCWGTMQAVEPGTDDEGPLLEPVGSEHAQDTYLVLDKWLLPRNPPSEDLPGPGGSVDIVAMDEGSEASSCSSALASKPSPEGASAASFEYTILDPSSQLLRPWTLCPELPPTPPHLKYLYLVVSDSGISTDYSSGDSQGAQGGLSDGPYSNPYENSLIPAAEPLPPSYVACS
The assay can be described thus: cell-based or functional assay.

Assay [1] has as its target T2, human glycophorin A (human, UniProt P02724 20-150).
T2 construct: Native protein on human red blood cells (and TF-1 cells); also called GYPA; huGYPA
T2 sequence: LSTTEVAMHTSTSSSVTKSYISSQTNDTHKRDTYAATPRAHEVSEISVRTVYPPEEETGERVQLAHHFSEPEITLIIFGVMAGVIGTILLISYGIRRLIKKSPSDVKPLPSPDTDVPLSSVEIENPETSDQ
Put plainly: column 'Binding strength' of Table 1, format nanobody; method not stated.

The target of assay [2] is T2, human glycophorin A. Put plainly: column 'Binding strength' of Table 1, format scFv; method not stated.

In the assay with EPO receptor on cells, Darbepoetin (Amgen) (ligand) showed a TF-1 cell proliferation, EC50 relative to epoetin alpha of 14.7 fold.

B1: IH4v1 nanobody (VHH)
VHH: QVQLQESGGGSVQAGGSLRLSCVASGYTDSTYCVGWFRQAPGKEREGVARINTISGRPWYADSVKGRFTISQDNSKNTVYLQMNSLKPEDTAIYYCTLTTANSRGFCSGGYNYKGQGTQVTVS
notes: Camelid single-domain antibody with the added Thr118
In the assay with human glycophorin A [1], B1 came in with a Kd of 30 nM. This lies in the double-digit nanomolar range.

B2: 1C3 scFv (scFv)
scFv: EVRLLESGGGPVQPGGSLKLSCAASGFDFSRYWMNWVRRAPGKGLEWIGEINQQSSTINYSPPLKDKFIISRDNAKSTLYLQMNKVRSEDTALYYCARLSLTAAGFAYWGQGTLVTVSAGGGSSGGSGSSGGSSSGGDIVMSQSPSSLAVSVGEKVSMSCKSSQSLFNSRTRKNYLTWYQQKPGQSPKPLIYWASTRESGVPDRFTGSGSGTDFTLTISSVQAEDLADYYCKQSYNLRTFGGGTKLEIK
Consider B2, for which, in the assay with human glycophorin A [2], the Kd stood at 30 nM.
